This note sets out measurements from US11312781B2, “Antigen binding molecules that bind LIGHT” (Capella Bioscience Ltd., priority 2018, dated 2022).

Test [1] relates to wild type and mutated membrane LIGHT. Put plainly: Alanine scanning mutagenesis of membrane LIGHT and flow cytometry (HEK293FF cells). The class given is binding, human. The note with it: single substitutions F57A to E86A and four amino acid substitutions 60-63 to 96-99. The source says: (§1) The full length LIGHT gene was synthesized by GeneArt (ThermoFisher Scientific) and cloned into the mammalian expression vector pcDNA 3.1(+). The following Ala mutations were introduced into the LIGHT gene: 30 single amino acid alanine substitutions from F57A to E86A; 2 single amino acid alanine substitutions; G188A, R189A; one serine substitution, A190S; 17 single amino acid alanine substitutions; T191A to V207A and 10 four amino acid alanine substitutions, 60-63, 64-67, 68-71, 72-75, 76-79, 80-83, 84-87, 88-91, 92-95 and 96-99. Constructs were reconstituted according to manufacture instructions, using DEPC-treated and sterile filtered water. Competent TOP10 E. coli cells were transformed with 100 ng of each construct and a single colony from each construct was picked and used to inoculate 10 ml of LB/carb100/glu2% medium and grown overnight at 37° C., 200 rpm. The extraction of the construct DNA was performed using the Qiagen QIAprep Spin Miniprep Kit (250) and the concentration was determined by measuring the O.D. at 260 nm in a spectrophotometer.
(§2) HEK293FF cells were cultured in Freestyle™293 expression medium (ThermoFisher scientific cat. no. 12338018) supplemented with 2 mM L-Glutamine. The day of transfection the cells were seeded in a 24-well plate at 0.6×10^6 cells/well. Lipofectamine 2000 (ThermoFisher scientific), 3 μl, was mixed with 50 μl OptiMEM medium (GIBCO) and then added to 50 μl Opti-MEM medium containing 3 ug plasmid DNA and incubated for 20 min at RT to form DNA-Lipofectamine 2000 complexes which were then added to the HEK293FF cells and incubated at 37° C., 5% CO2 for 24 hours. For each construct, in duplicate, 0.60×10^6 cells/well were used in a 96 well round bottom plate. Cells were centrifuged for 3 minutes at 300×g at 4° C., the supernatant discarded and the cells washed with 150 μl FACS buffer (0.5% FBS in phosphate buffered saline). This process was repeated 3 times. For each construct, […] cells/well were incubated with anti-LIGHT antibodies at the EC50 concentration and with positive controls of anti-LIGHT mAb MAB664 (R&D Systems), mAb F19 (EP2292663) or LTBR-Fc (R&D Systems), in a final volume of 50 μl/well for 30 min at 4° C., with shaking. The wells were washed 3 times as above and 50 μl/well of goat anti-human IgG FITC (1:1500 dilution in FACS buffer, SIGMA F9512-2ML) or goat anti-mouse APC (1/500 dilution in FACS buffer, BDBioscience 550826), as appropriate, was added to the wells and incubated for 30 min at 4° C. protected from the light, with shaking. The cells were then washed as above, resuspended in 100 μl of FACS buffer and binding of the antibodies to the constructs was measured using flow cytometry and a total of 10,000 cells were acquired for each sample. Controls of buffer and secondary antibody only as well as HEK293FF non transfected cells were also used.
(§3) All of the mAbs of this invention show a similar profile in that their epitope is located at amino acids 188-197 of LIGHT. […] The epitope of the mAbs of this invention defined by alanine scanning mutagenesis are residues 188-197 of LIGHT. This is visually depicted in FIG. 8 utilising a 3D visualisation of the LIGHT trimer from the crystal structure of LIGHT from Liu et al. (Structure 22: 1252-62; 2014). This would result in the mAbs binding to the “tip” of the LIGHT trimer and explaining the 1:1 binding. The impact of this epitope would result in […] less dosing of mAb 3B04 being required to neutralise membrane LIGHT compared to, for example, mAbs F19 and F23 (of EP2292663) which bind both soluble and membrane LIGHT equally and bind LIGHT in the ratio 3:1.
(In general: In flow cytometry, cells or beads pass a laser one at a time.)

A further test has as its target T1, native trimeric LIGHT (Homo sapiens, UniProt O43557, K214E).
T1 construct: amino acids 74-240 LIGHT (R&D Systems, 664-LI-025); purchased R&D Systems 664-LI-025
The experiment in a line: Binding ratio of mAbs bound to LIGHT by native mass spectrometry. As to conditions: LIGHT incubated 1:5 molar ratio (protein:antibody). How it is done:
The LIGHT protein (R&D Systems 664-LI-025) was solubilised in PBS buffer at a final concentration of 4 μM, whereas the mAbs were maintained at 20 μM in PBS. The samples were buffer exchanged into ammonium acetate pH 7.4 at different concentrations via a column with a cut-off of 40 kDa prior to mass spectrometry optimisation. […] Samples were stored at 4° C. and were used within one week. The antibodies were diluted to 1 μM prior to MSanalysis. For complex formation the LIGHT protein was incubated with each antibody separately in 1:5 ratio on ice and native mass measurements were performed 30 min after incubation.
Nano electrospray ionization measurements were performed using a Q Exactive hybrid quadrupole-Orbitrap mass spectrometer (Thermo Fisher Scientific) modified for the transmission and detection of high m/z ions. […] Elevated pressure was applied in the front optics and mass spectra were recorded at optimized collision energy. […] Data were analysed with Xcaliber software and deconvoluted manually.
Native mass spectroscopy was utilised to determine the ratio of mAb bound to native trimeric LIGHT. The measured mass of 3B04 (IgG4) was 147256±0.7 Da and the F19 anti-LIGHT mAb, (IgG4 mAb from EP2292663) was 147364±6.6 Da. […] Two major populations of the light protein were recorded with measured masses of 68 kDa and 71 kDa. […]

Test [2] concerns the target T2, wild type and mutated membrane LIGHT (Homo sapiens, UniProt O43557, W198A).
T2 construct: The full length LIGHT gene was synthesized by GeneArt (ThermoFisher Scientific); expressed in transfected cells; host or cells: HEK293FF, transient, pcDNA 3.1(+)
Put plainly: Alanine scanning mutagenesis of membrane LIGHT and flow cytometry (HEK293FF cells). It is filed as binding. As to conditions: aa mutation W198A, SEQ ID NO. 145.
Excerpt: as §1, §2, §3

For test [3], the target named is T3, wild type and mutated membrane LIGHT (Homo sapiens, UniProt O43557, V196A).
T3 construct: The full length LIGHT gene was synthesized by GeneArt (ThermoFisher Scientific); expressed in transfected cells; host or cells: HEK293FF, transient, pcDNA 3.1(+)
T3 sequence (O43557 whole entry V196A): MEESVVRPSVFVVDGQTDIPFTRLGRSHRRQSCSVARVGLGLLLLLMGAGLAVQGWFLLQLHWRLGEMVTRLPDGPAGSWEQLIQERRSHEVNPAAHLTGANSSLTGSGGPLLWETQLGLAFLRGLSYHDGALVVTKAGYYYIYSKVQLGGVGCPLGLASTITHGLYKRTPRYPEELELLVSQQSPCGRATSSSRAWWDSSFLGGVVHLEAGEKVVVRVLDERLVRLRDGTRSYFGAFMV
The test is described as above. It is filed as binding. The note with it: aa mutation V196A, SEQ ID NO. 143.
Excerpt: as §1, §2, §3

Test [4] addresses T4, wild type and mutated membrane LIGHT (Homo sapiens, UniProt O43557, T191A).
T4 construct: The full length LIGHT gene was synthesized by GeneArt (ThermoFisher Scientific); expressed in transfected cells; host or cells: HEK293FF, transient, pcDNA 3.1(+)
The description is as above. The class given is binding. As to conditions: aa mutation T191A, SEQ ID NO. 138.
Excerpt: as §1, §2, §3

T2 sequence (O43557 whole entry W198A): as the sequence (O43557 whole entry V196A) above, with A196V, W198A counted along it
T4 sequence (O43557 whole entry T191A): as the sequence (O43557 whole entry V196A) above, with T191A, A196V counted along it
T1 sequence (O43557 74-240 K214E): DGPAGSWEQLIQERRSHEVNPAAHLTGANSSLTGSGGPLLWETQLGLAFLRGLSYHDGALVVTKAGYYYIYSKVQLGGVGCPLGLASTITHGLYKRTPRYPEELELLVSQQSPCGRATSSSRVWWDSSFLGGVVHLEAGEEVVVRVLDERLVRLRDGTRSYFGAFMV

B1: 3B04: parental mouse anti-membrane LIGHT antibody, VL SEQ ID NO 1, VH SEQ ID NO 5; tested as chimeric human IgG4 mAb (antibody, listed as Homo sapiens, V domains shown)
VH: QVQLQQPGAELVRPGASVTLSCKASGYTFTDYEMHWVKQTPVHGLEWIGEIDPETGDTAYSQKFKGKATLTADKSSSTAYMEFRSLTSEDSAVYYCSRETDYFFDYWGQGTTLTVSS
VL: DIQMTQTPASLSASVGETVTITCGASENIYGALNWYQRKQGKSPQLLIYGATNLADGMSSRFSGSGSGRQYSLKISSLHPDDFATYYCQNVLTTPWTFGGGTKLEIKR
Turning to B1, in test [1], the “Binding to LIGHT alanine substitution constructs versus WT LIGHT” value is on record as “no difference in binding”. Moreover, in the test with native trimeric LIGHT, the “Stoichiometry of mAb bound to native trimeric LIGHT (antibody:LIGHT trimer)” value is “one antibody per one LIGHT protein”.

B2: 3D12: parental mouse anti-membrane LIGHT antibody, VL SEQ ID NO 41, VH SEQ ID NO 45; tested as chimeric human IgG4 mAb (antibody, listed as Homo sapiens, V domains shown)
VH: QVQLQQPGAELVRPGASVTLSCKASDYTFTDSEIHWVKQTPVHGLEWIGEIDPETGGTAYNQKFKGKATLTADKSSSTAYMELRSLTSEDSAVYYCSRETDYFFDYWGQGTTLTVSS
VL: DIQMTQSPASLSASVGETVTITCGASENIYGALNWYQRKQGKSPQLLIYGATNLADGMSSRFSGSGSGRQYSLKISSLHPDDVATYYCQNVLSTPWTFGGGTKLEIKR
For the molecule B2, the “Binding to membrane LIGHT construct as a percentage of the WT binding” value was 86% in test [2], 78% in test [3] and 3% in test [4]. Also, the “Binding to LIGHT alanine substitution constructs versus WT LIGHT” value in test [1] is “no difference in binding”.
